The nanobody polyreactivity screen of Harvey et al. (2022)

Experiment: yeast display, Sf9 membrane polyspecificity reagent, FACS + sequencing; frameworks hold sequencing errors
Outline: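 Genes from sorted yeast were amplified by colony PCR, read by MiSeq 2 × 250 sequencing and filtered on CDR length. These cells carried a synthetic nanobody library in Saccharomyces cerevisiae BJ5465 and were sorted by FACS into low and high (top ~1%) gates on anti-HA and streptavidin fluorescence. Polyreactivity is labelled according to the gate of origin.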

| Sequence | polyreactivity (PSR sort gate) |
| --- | --- |
| QVQLVESGGGLVQAGGSLRLSCASSGSIFVTYTMGWYRQAPGKERELVATISGGSSTYADSVKGRFTISRDNAKNTVYLQMNSLKPEDTAVYYCNAVWYFKPPPLYYIPYRQYDYWGQGTQVTVSS | low polyreactivity |
| QVQLVESGGGLVQAGGSLRLSCASSGSIFYVNTMGWYRQAPGKERELVATISVSGGSTNYADSVKGRFTISRDNAKNTVYFQMNSLKPEDTAVYYCAEAYLRYYDGPYDYWGQGTQVTVSS | low polyreactivity |
| QVQLVESGGGLVQAGGSLRLSCASSGSIGYYAMGWYRQAPGKERELVAAIDWSGGDTYYADSVKGRFTISRDNAKNTVYLQMNSLKPEDTAVYYCAADAGRYLPDCTYDYWGQGTQVTVSS | low polyreactivity |
| QVQLVESGGGLVQAGGSLRLSCASSGSILYVYAMGWYRQAPGKERELVAAISTSGVSTYYADSVKGRFTISRDNAKNTVYLQMNSLKPEDTAVYYCAATVSRGFYSWWYDYWGQGTQVTVSS | low polyreactivity |
| QVQLVESGGGLVQAGGSLRLSCASSGSTFAPNAMGWYSQAPGKEREFVAAITYRGSSTYYADSVKGRFTISRDNAKNTVYLQMNSLKPEDTAVYYCAADYVEYKVRSYDYWGQGTQVTVSS | low polyreactivity |
| QVQLVESGGGLVQAGGSLRLSCASSGSTFSSYAMGRYRQAPGKERELVAAITRGGSTNYADSVKGRFTISRDNAKNTVYLQMNSLKPEYTAVYYCAADGPIVGTMDYWGQGTQVTVSS | high polyreactivity |
| QVQLVESGGGLVQAGGSLRLSCASSGSTFTGNAMGWYRQAPGKERELVAAISYRGVSTSYADSVKGRFTISRDNAKNTVYLQMNSLKPEDTAVYYCAKRRSLVRSIPFDSWGQGTQVTVSS | low polyreactivity |
| QVQLVESGGGLVQAGGSLRLSCASSGSTFWFYAMGWYRQAPGKERELVAAITRSAGSTYYADSVKGRFTISRDNAKNTVYLQMNSLKPEGTAVYYCAAQRESLYGGFDYWGQGTQVTVSS | low polyreactivity |
| QVQLVESGGGLVQAGGSLRLSCASSGSTFYNNALGWYRQAPGKERELVAAISNVSTYYADSVKGRFTISRDNAKNTVYLQLISLKPEDTAVYYCAARGLLWYYSWRYYFWGQGTQVTVSS | low polyreactivity |
| QVQLVESGGGLVQAGGSLRLSCASSGSTFYPNAMGWYRQAPGKERELVAAISRSGGSTYYADSVKGRFTISRDNAKNTVYLQMNSLKPEDTGVYYCAADGRSPSRYDYWGQGTQVTVSS | low polyreactivity |
| QVQLVESGGGLVQAGGSLRLSCASSGSTFYRYAMGWYRQAPGKERELVARINTGGSTSYAYSVKGRFTISRDNAKNTVYLQKNSLKPVDTAVYYCAASSRYAVFGRYYYWGQGTQVTVSS | high polyreactivity |
| QVQLVESGGGLVQAGGSLRLSCASSGSTFYSYVMGWYRQAPGKERELVAVISNDGSTNYADSVKGRFTISRDNAKNSVYLQMNSLKPEDTAVYYCDALKFVRAYRYYYWGQGTQVTVSS | low polyreactivity |
| QVQLVESGGGLVQAGGSLRLSCASSGSTFYTNAMGWYRQAPGKERELVAGISSGGSTYYADSVKARFTISRDNAKNTVYLQINSLKPEDTAVYYCAAVERTRYWEFYYWGQGTQVIVSS | high polyreactivity |
| QVQLVESGGGLVQAGGSLRLSCASYGYTFFNYAKGWYRQAPGKERELVAAITTGGSTYYADSVKGRFTISRDNAKNTVYLQMNSLKPEDTAVYYCPFDYWGQGTQVTVSS | high polyreactivity |
| QVQLVESGGGLVQAGGSLRLSCATSGFIFSLYAMGWYRQAPGKERELVAAINWNGGRTYYADSVKGRFTISRDNAKNTVYLQMDSLKPEDTAVYYCATRSGSYSYPAVGGWGLGYWGQGTQVTVSS | high polyreactivity |
| QVQLVESGGGLVQAGGSLRLSCATSGSIFYRYAMGWYRQAPGKEREFVAAIRWRGGSTYYADSVKGRFTISRDNAKNTVYLQMNSLKPEDTAVYYCAAPTVQSYNYWGQGTQVTVSS | high polyreactivity |
| QVQLVESGGGLVQAGGSLRLSCAVSGRIFRRNVMGWSRPAPGKERALVAGSSYSGDSTYYADSVKGRFTISRDNAKNTVYLQMNSLKPEDTAVYYCAAALAHYRGMYYWGQGTQVTVSS | low polyreactivity |
| QVQLVESGGGLVQAGGSLRLSCAVSGRIFRRNVMGWYRQAPGKERELVAGSSYSGDSTYYADSVKGRFTISRDNAKNTVYLQMNRLKPEDTAVYYCAAALAHYRGMYYWGQGTQVTVSS | high polyreactivity |
| QVQLVESGGGLVQAGGSLRLSCCASGFTFIVYSMGWYRQSPGKERELVAAITQSGGSTFYADSVKGRFTISRDNAKNTVYLQMNSLKPEDTAVYYCNAYRKFRYWGQGTQVTVSS | low polyreactivity |
| QVQLVESGGGLVQAGGSLRLSCCASGRTFLDNALGWYRQAPGKERQLVAAISGGGGTYYADSVKGRFTISRDNAKNTVYLQMNSLKPEDTAVYYCATDRGHKWVFYVTYYRYESWGQGTQVTVSS | low polyreactivity |
| QVQLVESGGGLVQAGGSLRLSCDASGFIFYSYAMGWYRQAPGKERELVAGITSGGITSYADSVKGRFTISRDNAKNTVYLQMNSLKPEDTAVYYCAKDVRSYRISVYGVGYWGQGTQVTVSS | high polyreactivity |
| QVQLVESGGGLVQAGGSLRLSCDASGFNFASNDMGWYRPAPGKERELVAAITKGGGRTYYADSVKGRFTISRDNAKNTVYLQMNSLKPEDTAVYYCAARQLIKYDYWGQGTQVTVSS | low polyreactivity |

| Sequence | polyreactivity (PSR sort gate) |
| --- | --- |
| QVQLVESGGGLVQAGGSLRLSCDASGFTFYSYARGWYRQAPGKEREFVASISRSGGSTYYADSVKGRFTISRDNAKYTVYLQMNSLKAEDTEVYYCAARSVRDRDGGDYWGQGTQVTVSS | high polyreactivity |
| QVQLVESGGGLVQAGGSLRLSCDASGGIFFYNTLRCSRQAPGKERELVAAITTNGDSTYYADSVKGRFTISRDNAKYTVYLQMNSLKPVDTAVYYCATPLELFASFSFSHYVYLFDSWGQGTQVNVSS | low polyreactivity |
| QVQLVESGGGLVQAGGSLRLSCDASGIIFKKYAMGWNRQAPGKERELVAVITRGGSTNYADSVKGRFTISRDNAKNTVYLQMNSLKPEDTAVYYCNADSGSYHGWYGGDYGGQGTQVTVSS | low polyreactivity |
| QVQLVESGGGLVQAGGSLRLSCDASGIILNINAMGWYRQAPGKERELVAAITSDGSTNYADSVKGRFTISRDNAKNTVYLQMNSLKPEDTAVYYCAVDLPWGTGVSQYPESDYWGQGTQVTVSS | low polyreactivity |
| QVQLVESGGGLVQAGGSLRLSCDASGITFASYAMGWYRQAPGKERELVAAISWGGSRTYYADSVKGRFTISRDNAKNTVYFQMNSLKPVDTAVYYCNAHTRYGPDYSYYYWGQGTQVTVSS | high polyreactivity |
| QVQLVESGGGLVQAGGSLRLSCDASGITFIRNGMGWYRQAPGKERELVAAISDTGARTYYADSVKGRFTISRDNAKNTVYLQMNSLKPEDTAVYYCAAEVRTRYLYSFRWDDYWGQGTQVTVSS | low polyreactivity |
| QVQLVESGGGLVQAGGSLRLSCDASGITFQYYAMGWYRQAPGKERELVAAINWRGGTTYYADSVKGRITISRDNAKNTVYLQMNSLIPEDNEVYYCAADYYYQAGFYYWGQGTQVTVSS | low polyreactivity |
| QVQLVESGGGLVQAGGSLRLSCDASGITQTVYAMGWYRQSPGKERELVAGIDWVGDTYADSVKGRFTISRDNAKNTVYLQMNSLKPEDTAVYYCAADNYSQGVPYDYWGQGSQVTVSS | low polyreactivity |
| QVQLVESGGGLVQAGGSLRLSCDASGLIFITYAMRWYRQAPGKERELVATITLRGGSTYYADSVKGRFTISRDNAKNTVYLQMNSLKPEDTAVYYCAAEVGYWGRSRGYPSDDYDYCGQGTQVTVSS | low polyreactivity |
| QVQLVESGGGLVQAGGSLRLSCDASGLTFPYYTMGWYRQAPGKERELVADINGSGGSTYYADSVKGRFTISLDNAKNTFYLQMNSLKPEDTEVYYCAAGSWQVAISYDYWGQGTQVTVSS | low polyreactivity |
| QVQLVESGGGLVQAGGSLRLSCDASGNILPSNAMGWYRQAPGKERELVAAITWSVGRTYYADSVKGRFTISRDNAKNTVYLQMNSLKPEDTAVYYCNAQDTPYEGRYDESEYDYWGQGTQVTVSS | low polyreactivity |
| QVQLVESGGGLVQAGGSLRLSCDASGNTFSRYAMGWYRQAHGKERELVAAITSSGGSTYYADSVKGRFTISRDNAKNTVYLQMNSLKPEDTAVYYCAATSYYTREHYYYWGQGTQVTVSS | high polyreactivity |
| QVQLVESGGGLVQAGGSLRLSCDASGNTFVRYAMGWFRQAPGKERELVAGISASGGSTSYADSVKGRFTISRDNAKNTVYLQMNSLKPEDTAVYYCARNYWLYSSSYDSWGQGTQVTVSS | high polyreactivity |
| QVQLVESGGGLVQAGGSLRLSCDASGNTSSYYTMGWYRQAPGKERELGARISNRGTNTYYAESVKGRVTISRDNAKNTVYLQMNSLKPEDTAVYYCAALYWFYVYPFTEYDYWGQGTQVTVSS | low polyreactivity |
| QVQLVESGGGLVQAGGSLRLSCDASGRHFKRYDMGWYRQAPGKERELVAAISWSGTSTHYADSVKGRLTISRDNAKNTVYLQMNSLKPEDTAVYYCAAYWFNTSYPGRYDYWGQGTQVTVSS | high polyreactivity |
| QVQLVESGGGLVQAGGSLRLSCDASGRIFFNTMGWYRQAPGKERELVAAISSGGSTSYADSVKGRFTISRDNAKNTVYLQMNSLKPEDTAVYYCADLKLYIYDYWGQGTQVTVSS | high polyreactivity |
| QVQLVESGGGLVQAGGSLRLSCDASGRIFGLYDMGWYRQAPGKERELVAAISRGGGSTYYADSVKGRFTISRDNAKNTVYLQMNSLKPEDTAVYYCATGLGYFSRLDYWGQGTQVTVSS | low polyreactivity |
| QVQLVESGGGLVQAGGSLRLSCDASGRIFGYTMGWYIQAPGKERELVAAISKSGGSTYYADSVKGRFTISRDNAKNTVYLQMNSLKPEDTAVYYCNKPQRILYDYWGQGTQVTVSS | high polyreactivity |
| QVQLVESGGGLVQAGGSLRLSCDASGRIFHYNSMGWYRQAPGKERELVAAISTGGSTNYADSVKGRFTISRDNAKNTVYLQMNSLKPEDTAVYYCAADHPVTYPTSKFDYWGQGTQVTVSS | low polyreactivity |
| QVQLVESGGGLVQAGGSLRLSCDASGRIFNYYAMGWYRQAPGKERELVAAITWNGGNTYYADSVKGRFTISRDNAKNTVYLQMNSLKPEDTAVYYCNAYPWYPGDYWGQGTQVTVSS | high polyreactivity |
| QVQLVESGGGLVQAGGSLRLSCDASGRIFYNYAMGWYRQEPGKERELVAAISSSGGRTYYADSVKGRFTISRDKAKNTVYLQMNSLKPEDTAVYYCAADFHDASRPYGSWGQGTQVTVSS | low polyreactivity |
